Test results taken from patent publication US20080242608.

Target: T1, GST-FOXO3 peptide P2 (amino acids 154-259), O43524
T1 chain: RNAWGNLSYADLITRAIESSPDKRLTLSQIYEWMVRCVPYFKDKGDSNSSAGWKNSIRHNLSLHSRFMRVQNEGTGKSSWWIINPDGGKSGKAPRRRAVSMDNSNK

B1: FLAG-MST1 (protein)
chain: METVQLRNPPRRQLKKLDEDSLTKQPEEVFDVLEKLGEGSYGSVYKAIHKETGQIVAIKQVPVESDLQEIIKEISIMQQCDSPHVVKYYGSYFKNTDLWIVMEYCGAGSVSDIIRLRNKTLTEDEIATILQSTLKGLEYLHFMRKIHRDIKAGNILLNTEGHAKLADFGVAGQLTDTMAKRNTVIGTPFWMAPEVIQEIGYNCVADIWSLGITAIEMAEGKPPYADIHPMRAIFMIPTNPPPTFRKPELWSDNFTDFVKQCLVKSPEQRATATQLLQHPFVRSAKGVSILRDLINEAMDVKLKRQESQQREVDQDDEENSEEDEMDSGTMVRAVGDEMGTVRVASTMTDGANTMIEHDDTLPSQLGTMVINAEDEEEEGTMKRRDETMQPAKPSFLEYFEQKEKENQINSFGKSVPGPLKNSSDWKIPQDGDYEFLKSWTVEDLQKRLLALDPMMEQEIEEIRQKYQSKRQPILDAIEAKKRRQQNF
With B1 the “in vitro kinase assay (phosphorylation of GST-FOXO3 peptides)” value was “MST1 robustly phosphorylated the P2 fragment”.
